Reference: US20230338465A1 (VITRUVIAE, published 2023)
Where “and” joins values, the source holds several entries; their conditions need not be identical. Equal values may be shown once. Read-outs that look alike come from different tables or passages of the source.

How the values were obtained:
Experiment in all cases: ELISA, 2.5 mM CaCl2
SARS-Cov-2 S D614G [1] = target: T1, SARS-Cov-2 S D614G (SARS-CoV-2, UniProt P0DTC2 16-1213)
T1 construct: also called SARS-CoV-2 S protein (D614G); SARS-COV2 S Protein

SARS-Cov-2 S D614G [2] = target: T1, SARS-Cov-2 S D614G; remark: listed apart in the source
SARS-Cov-2 S D614G [3] = target: T1, SARS-Cov-2 S D614G; remark: listed apart in the source
SARS-Cov-2 S D614G [4] = target: T1, SARS-Cov-2 S D614G; remark: listed apart in the source

| Binder | EC50 (SARS-Cov-2 S D614G [1]) | EC50 (SARS-Cov-2 S D614G [2]) | EC50 (SARS-Cov-2 S D614G [3]) | EC50 (SARS-Cov-2 S D614G [4]) |
| --- | --- | --- | --- | --- |
| VP020 (V-CTLD-1 with V-IGG4-ADC-B-Fc) (Fc fusion, also called CT-G4-B-DC; VIT-308) ERLCHPCPWEWTFFQGNCYFMSNSQRNWHDSITACKEVGAQLVVIKSAEEQNFLQLQSSRSNRFTWMGLSDLNQEGTWQWVDGSPLLPSFKQYWNRGEPNNVGEEDCAEFSGNGWNDDKCNLAKFWICKKSAASCSGGGGSGGGGSGGGGSKYGPPCPPCPAPEAAGGPSVFLFPPKPKDTLMISRTPEVTCVVVDVSQEDPEVQFNWYVDGVEVHNAKTKPREEQFNSTYRVVSVLTVLHQDWLNGKEYKCAVSNKGLPSSIEKTISKCKGQPREPQVYTLPPSQEEMTKNQVSLTCLVKGFYPSDIAVEWESNGQPENNYKTTPPVLDSDGSFLLYSKLTVDKSRWQEGNVFSCSVMHEALHNHYTQKSLSLSLGK | 4.5 µg/mL | 52.5 nM | 55.6 µg/mL and 641 nM |  |
| VP019-F2 (multimer fraction F2 of VP019, V-TIM1-1 with V-IGG4-ADC-A-Fc) (Fc fusion, also called TM-G4-A-DC; VIT-307) SVKVGGEAGPSVTLPCHYSGAVTSMCWNRGSCSLFTCQNGIVWTNGTHVTYRKDTRYKLLGDLSRRDVSLTIENTAVSDSGVYCCRVEHRGWFNDMKITVSLEIVGGGGSGGGGSGGGGSKYGPPCPPCPAPEAAGGPSVFLFPPKPKDTLMISRTPEVTCVVVDVSQEDPEVQFNWYVDGVEVHNAKTKPREEQFNSTYRVVSVLTVLHQDWLNGKEYKCAVSNKGLPSSIEKTISKCKGQPREPQVYTLPPSQEEMTKNQVSLTCLVKGFYPSDIAVEWESNGQPENNYKTTPPVLDSDGSFFLYSRLTVDKSRWQEGNVFSCSVMHEALHNHYTQKSLSLSLGK | 1.7 µg/mL | 21.1 nM | 0.9 µg/mL and 10.6 nM |  |
| VP025-F4 (fraction 4 of VP025-CT, VP019/VP020 heterodimer, about 78% pure) (Fc fusion, also called VP025-F4 (78% pure heterodimer)) chain 1: SVKVGGEAGPSVTLPCHYSGAVTSMCWNRGSCSLFTCQNGIVWTNGTHVTYRKDTRYKLLGDLSRRDVSLTIENTAVSDSGVYCCRVEHRGWFNDMKITVSLEIVGGGGSGGGGSGGGGSKYGPPCPPCPAPEAAGGPSVFLFPPKPKDTLMISRTPEVTCVVVDVSQEDPEVQFNWYVDGVEVHNAKTKPREEQFNSTYRVVSVLTVLHQDWLNGKEYKCAVSNKGLPSSIEKTISKCKGQPREPQVYTLPPSQEEMTKNQVSLTCLVKGFYPSDIAVEWESNGQPENNYKTTPPVLDSDGSFFLYSRLTVDKSRWQEGNVFSCSVMHEALHNHYTQKSLSLSLGK chain 2: ERLCHPCPWEWTFFQGNCYFMSNSQRNWHDSITACKEVGAQLVVIKSAEEQNFLQLQSSRSNRFTWMGLSDLNQEGTWQWVDGSPLLPSFKQYWNRGEPNNVGEEDCAEFSGNGWNDDKCNLAKFWICKKSAASCSGGGGSGGGGSGGGGSKYGPPCPPCPAPEAAGGPSVFLFPPKPKDTLMISRTPEVTCVVVDVSQEDPEVQFNWYVDGVEVHNAKTKPREEQFNSTYRVVSVLTVLHQDWLNGKEYKCAVSNKGLPSSIEKTISKCKGQPREPQVYTLPPSQEEMTKNQVSLTCLVKGFYPSDIAVEWESNGQPENNYKTTPPVLDSDGSFLLYSKLTVDKSRWQEGNVFSCSVMHEALHNHYTQKSLSLSLGK | 0.8 µg/mL | 10 nM |  |  |
| VP025-CT (co-transfected product of genes TM-G4-A-DC and CT-G4-B-DC, heterodimer mixture) (Fc fusion, also called VP025-CT (heterodimer mixture)) chain 1: SVKVGGEAGPSVTLPCHYSGAVTSMCWNRGSCSLFTCQNGIVWTNGTHVTYRKDTRYKLLGDLSRRDVSLTIENTAVSDSGVYCCRVEHRGWFNDMKITVSLEIVGGGGSGGGGSGGGGSKYGPPCPPCPAPEAAGGPSVFLFPPKPKDTLMISRTPEVTCVVVDVSQEDPEVQFNWYVDGVEVHNAKTKPREEQFNSTYRVVSVLTVLHQDWLNGKEYKCAVSNKGLPSSIEKTISKCKGQPREPQVYTLPPSQEEMTKNQVSLTCLVKGFYPSDIAVEWESNGQPENNYKTTPPVLDSDGSFFLYSRLTVDKSRWQEGNVFSCSVMHEALHNHYTQKSLSLSLGK chain 2: ERLCHPCPWEWTFFQGNCYFMSNSQRNWHDSITACKEVGAQLVVIKSAEEQNFLQLQSSRSNRFTWMGLSDLNQEGTWQWVDGSPLLPSFKQYWNRGEPNNVGEEDCAEFSGNGWNDDKCNLAKFWICKKSAASCSGGGGSGGGGSGGGGSKYGPPCPPCPAPEAAGGPSVFLFPPKPKDTLMISRTPEVTCVVVDVSQEDPEVQFNWYVDGVEVHNAKTKPREEQFNSTYRVVSVLTVLHQDWLNGKEYKCAVSNKGLPSSIEKTISKCKGQPREPQVYTLPPSQEEMTKNQVSLTCLVKGFYPSDIAVEWESNGQPENNYKTTPPVLDSDGSFLLYSKLTVDKSRWQEGNVFSCSVMHEALHNHYTQKSLSLSLGK | 1.2 µg/mL | 13.8 nM | 6.9 µg/mL and 82.5 nM | 4 µg/mL and 47.6 nM |
